Measurements: the nanobody polyreactivity screen of Harvey et al. (2022)

Assay: yeast display, Sf9 membrane polyspecificity reagent, FACS + sequencing; frameworks hold sequencing errors
Method in brief: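 Polyreactivity labels are assigned by the sorting gate from which each nanobody was recovered. The gates were low and high (top ~1%), set on anti-HA fluorescence for expression and streptavidin fluorescence for reagent binding. Before sorting, galactose-induced (36–48 hours) yeast display cells were stained for 1 hour at 4 °C with 10% biotinylated, detergent-solubilized Sf9 membrane reagent.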

Sequence | polyreactivity (PSR sort gate)
QVQLVESGGGLVQAGGSLRLSCAASGFIFSNYAMGWYRQAPGKERELVAAISWSGGNTYYADSVKGRFTISRDNAKNTVYLQMNSLKPEDTAVYYCTRVKAYYRWFLPRYQYNYWGQGTQVTVSS | high polyreactivity
QVQLVESGGGLVQAGGSLRLSCAASGFIFSPYAMGWYRQAPGKERELVAAINGGGRTYYADSVKGRFTISRDNAKNTVYLQMNSLKPEDTAVYYCAVDPISQGHMDYWGQGTQVTVSS | low polyreactivity
QVQLVESGGGLVQAGGSLRLSCAASGFIFSPYAMGWYRQAPGKERELVAAISSGTRTNYADSVKGRFTISRDNAKNTVYLQMNSLKPEDTAVYYCAAKYRGTYDSRVYYWFYYWGQGTQVTVSS | high polyreactivity
QVQLVESGGGLVQAGGSLRLSCAASGFIFSPYAMGWYRQAPGKERELVATITWSGGRTYYADSVKGRFTISRDNAKNTVYLQMNSLKPEDTAVYYCNADGYQPALNKDFGYWGQGTQVTVSS | low polyreactivity
QVQLVESGGGLVQAGGSLRLSCAASGFIFSQNAMGWYRQAPGKERELVAAITSGGGTNYADSVKGRFTISRDNAKNTVYLQMNSLKPEDTAVYYCAADDEKRYSYQTYFERDYWGQGTQVTVSS | low polyreactivity
QVQLVESGGGLVQAGGSLRLSCAASGFIFSQNVMGWYRQAPGKERELVAAISSSGGSTYYADSVKGRFTISRDNAKNTVYLQMNSLKREDTAVYYCAARPYVRFNYWGQGTQVTVSS | high polyreactivity
QVQLVESGGGLVQAGGSLRLSCAASGFIFSRNAMGWYRQAPGKERELVAAITRGGITYYADSVKGRFTISRDNAKNTVYLQMNSLKPEDTAVYYCAAYRTYQAYTGSHYYYWGQGTQVTVSS | high polyreactivity
QVQLVESGGGLVQAGGSLRLSCAASGFIFSRNAMGWYRQAPGKERELVATISKRGGSTYYADSVKGRFTISRDNAKNTVYLQMNSLKPEDTAVYYCAATGGILSTYDYWGQGTQVTVSS | high polyreactivity
QVQLVESGGGLVQAGGSLRLSCAASGFIFSRYAMGWYRQAPGKERELVAAIRFSGSITYYADSVKGRFTISRDNAKNTVYLQMNSLKPEDTAVYYCAAYRRYYGWYEYWGQGTQVTVSS | high polyreactivity
QVQLVESGGGLVQAGGSLRLSCAASGFIFSRYAMGWYRQAPGKERELVAAISIGGSTYYADSVKGRFTISRDNAKNTVYVQMNSLKPEDTAVYYCPVDYRHSSSWNAGPWEMYYWGQGTQVTVSS | low polyreactivity
QVQLVESGGGLVQAGGSLRLSCAASGFIFSRYAMGWYRQAPGKVRELVASISWGGGSTSYADSVKGRFTISRDNAKNTVYLQMNSLKPEDTAVYYCNARVRSHRFNYWGQGTQVTVSS | high polyreactivity
QVQLVESGGGLVQAGGSLRLSCAASGFIFSRYPMGWYRQAPGKERELVASISWRGGSTSYADSVKGRFTISRDNAKNTVYLQMNSLKPEDTAVYYCAASSRQVLEYDYWGQGTQVTVSS | high polyreactivity
QVQLVESGGGLVQAGGSLRLSCAASGFIFSRYSMGWYRQAPGKERELVAGITSRGGITYYADSVKGRFTISRDNAKNTVYLQMNSLIPEDTAVYYCNAGKSLSKSFDYWGQGTQVTVSS | high polyreactivity
QVQLVESGGGLVQAGGSLRLSCAASGFIFSRYVMGWYRQAPGKERELVAAISGSGGRTYYADSVKGRFTISRDKAKNTVYLQMNSLKPEDTAVYYCAARFLSPYHYYYWGQGTQVTVSS | high polyreactivity
QVQLVESGGGLVQAGGSLRLSCAASGFIFSSNAMGGYRQAPGKERELDATISFSGDSTYYADSVKGRFTISRDNEKNTVYLQMNSLKPEDTAVYYCARSTYYRWYKYGYYDYNYWGQGTQVTVSS | low polyreactivity
QVQLVESGGGLVQAGGSLRLSCAASGFIFSSNAMGWYRQAPGKERELVAGITASGVSTYYADSVKGRFTISRDNAKNTVYLQMNSLKPEDTAVYYCAALGLYYYFYSQYIDWDDYWGQGTQVTVSS | low polyreactivity

Sequence | polyreactivity (PSR sort gate)
QVQLVESGGGLVQAGGSLRLSCAASGFIFSSNAMGWYRQAPGKERELVATISFSGESTYYADSVKGRFTISRDNAKNTVYLQMNSLKPEDTAVYYCARRTYYRWYKYGYYDYNYWRQGTQVTVSS | low polyreactivity
QVQLVESGGGLVQAGGSLRLSCAASGFIFSSYAMAWYRQAPGKERDLVAAISKSGDRTSYADSVKGRFTISRDNAKNTVYLQMNSLKPEDTAVYYCAKDRLYRTKKYRDMYYWGQGTQVSVSS | high polyreactivity
QVQLVESGGGLVQAGGSLRLSCAASGFIFSTYAMGWYRQAPGKERELVASIDWSGDSTYYADSVKGRFTISRDNAKNTVYLQMTSLKPEDTAVYEFAADDASYPYIFDSYDYWGQGTQVTVSS | low polyreactivity
QVQLVESGGGLVQAGGSLRLSCAASGFIFSVNAMGWYRQAPGKERELVADISCRGTSTNYADSVKGRFTISRDNAKNTVYLQMNSLKPEDTAVYYCAADGQLHMDYWGQGTQVTVSS | high polyreactivity
QVQLVESGGGLVQAGGSLRLSCAASGFIFSWYAMGWYRQAPGKERELVAAISYSGSNTYYADSVKGRFTISRDNAKNTVYLQMNSLKPEDTAVYYCAATLGSRWAIYDYWGQGTQVTVSS | high polyreactivity
QVQLVESGGGLVQAGGSLRLSCAASGFIFSWYAMGWYRQAPGKERELVATISSSGGRTHYADSVKGRFTISRDNAKNTVYLQMNSLKPEDTAVYYCAAQPFSYFTTVYYWGQGTQVTVSS | high polyreactivity
QVQLVESGGGLVQAGGSLRLSCAASGFIFSYCAKGRYRQAPGKERELVAAISRSGGRTYYADSVKGRYTISRDNAKNTVYLQMNSLKPEDTAVYYCAAPVSLRPIYDYWGQGTQVTVSS | high polyreactivity
QVQLVESGGGLVQAGGSLRLSCAASGFIFSYNAMGSYRQAPGKERELVAAISRRGGSTYYADSVKGRFTISRDNAKNTVYLQMNSLKPEDTAVYYCAAKSYLDSSGTFNYWGQGTQVTVSS | high polyreactivity
QVQLVESGGGLVQAGGSLRLSCAASGFIFSYYAMGWYRPAPGKERELVAAITDSGGSTYYADSVKGRFTISRDNAKNSVYLQMNSLKPEYTAVYYCATEIEQTAEYDYLGQGTQVTVSS | low polyreactivity
QVQLVESGGGLVQAGGSLRLSCAASGFIFSYYAMGWYRQAPGKERELVAAINYSGGRTYYADSVKGRFTISRDYAKNTVYLQMNSLKPEDTAVYYCNAVTFGRRAFDYWGQGTQVTVSS | high polyreactivity
QVQLVESGGGLVQAGGSLRLSCAASGFIFSYYAMGWYRQAPGKERELVAAISSSGGTTYADSVKGRFTISRDNAKNTVYLQMNSLKPEDTAVYYCARVQYWFYKPMYYWGQGTQVNVSS | high polyreactivity
QVQLVESGGGLVQAGGSLRLSCAASGFIFSYYAMGWYRQAPGKERELVATITSGGSTNYADSVKGRFTISRDNAKNTVYLQMNSLKPEVTAVNYCATRKYRVPRSYDWGQGTQVTVTS | high polyreactivity
QVQLVESGGGLVQAGGSLRLSCAASGFIFSYYTMGWYRQAPGKESELVAAISYSGGSTDYADSVKWRFTISRDNAKNTVYLQMNSLKPEDTAVYYCNADYSFWAEPYWEYGYDYWGQGTQVTVSS | low polyreactivity
QVQLVESGGGLVQAGGSLRLSCAASGFIFTDNAMGWYRQAPGKERELVAAISKNGGSTYYADSVKGRFTISRDNAKNTVYLQMNSLKPDDTAVYYCNAVRRDSGTYRSPDTTRYDYWGQVTQVTVSS | high polyreactivity
QVQLVESGGGLVQAGGSLRLSCAASGFIFTDYAMGWYRQAPGKERELVATISWSGSSTYYADSVKGRFTISRDNAKNTVYLQMNSLKPEDTAVYYCAAEFWYTYPYLVDYWGQGTKVTVSS | low polyreactivity
